B1: M0098-H04 (Fab, V domains shown)
VH: EVQLLESGGGLVQPGGSLRLSCAASGFTFSHYVMSWVRQAPGKGLEWVSRIYPSGGQTYYADSVKGRFTISRDNSKNTLYLQMNSLRAEDTAVYYCARGAGWFDPWGQGTLVTVSS
VL: AQSELTQPPSASGSPGQSLTISCTGGRRDIGNYNYVSWYQQHPGKAPRLIIYDVRKRPSGVPDRFSGSKSGNVAFLTVSGLQTDDEADYYCGSYTGTSNVFGSGTTVTVLG
B2: M0131-G03 (Fab, V domains shown)
VH: EVQLLESGGGLVQPGGSLRLSCAASGFTFSHYVMQWVRQAPGKGLEWVSSIYPSGGSTRYADSVKGRFTISRDNSKNTLYLQMNSLRAEDTAMYYCARFNVGFDLWGRGTLVTVSS
VL: AQSELTQPPSASGSPGQSLTISCTGGRRDIGNYNYVSWYQQHPGKAPRLIIYDVRKRPSGVPDRFSGSKSGNVAFLTVSGLQTDDEADYYCGSYTGTSNVFGSGTTVTVLG
B3: M0138-B10 (Fab, V domains shown)
VH: EVQLLESGGGLVQPGGSLRLSCAASGFTFSHYSMTWVRQAPGKGLEWVSRIYPSGGRTGYADSVKGRFTISRDNSKNTLYLQMNSLRAEDTAVYYCATDSGGYYYGMDVWGQGTTVTVSS
VL: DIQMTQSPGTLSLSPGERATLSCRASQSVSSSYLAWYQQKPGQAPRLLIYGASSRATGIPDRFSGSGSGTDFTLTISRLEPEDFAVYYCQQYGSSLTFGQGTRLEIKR
B4: M0138-C04 (Fab, V domains shown)
VH: EVQLLESGGGLVQPGGSLRLSCAASGFTFSHYHMQWVRQAPGKGLEWVSGIRSSGGVTGYSDSVKGRFTISRDNSKNTLYLQMNSLRAEDTAVYYCAREVTMVRGVYYYYYGMDVWGQGTTVTVSS
VL: AQYELTQPASVSGSPGQSITISCTGTSSDVGAYNYVSWYQHHPGKAPKLLIYDVSNRPSGISSRFSGSKSGNTASLTISGLQAEDEADYYCSSYTSSYTWVFGGGTKLTVLS
B5: M0093-C02 (Fab, V domains shown)
VH: EVQLLESGGGLVQPGGSLRLSCAASGFTFSWYAMHWVRQAPGKGLEWVSWISPSGGQTKYADSVKGRFTISRDNSKNTLYLQMNSLRAEDTAVYYCARAKVLRYFDWLLGGDAFDIWGQGTMVTVSS
VL: DIQMTQSPGTLSLSPGDRATLSCRASQSVGSDYLAWYQQKPGQAPRLLIFAASTRATGIPDRFSGSGSATDFTLTISSLEPEDFAVYFCQQYASPPRTFGQGTKVEIKR
B6: M0135-C12 (Fab, V domains shown)
VH: EVQLLESGGGLVQPGGSLRLSCAASGFTFSRYHMSWVRQAPGKGLEWVSSIRPSGGSTIYADSVKGRFTISRDNSKNTLYLQMNSLRAEDTAVYYCAREPRRYYYDSSGSYDAFDIWGQGTMVTVSS
VL: AQSELTQPPSMSGTPGQRVIISCSGSNSNIGNNFVYWYQQVAGSAPKLLIFRNNQRPSGVPDRFTVSKSGASASLAIGGLRSEDEADYYCAAWDDSLSGVLFGGGTKVTVLG
B7: M0121-A07 (Fab, V domains shown)
VH: EVQLLESGGGLVQPGGSLRLSCAASGFTFSHYLMYWVRQAPGKGLEWVSRIYPSGGATSYADSVKGRFTISRDNSKNTLYLQMNSLRAEDTAVYYCAKSGSWYSFDYWGQGTLVTVSS
VL: DIQMTQSPGTLSLSPGERATLSCRASQSVSSNYLAWYQQKPGQAPRLLMYGASYRATGIPDRFSGSGSGTDFTLTISSLQPEDFATYYCQQSYSTPWTFGQGTKVEIKR
B8: M0132-D08 (Fab, V domains shown)
VH: EVQLLESGGGLVQPGGSLRLSCAASGFTFSHYLMYWVRQAPGKGLEWVSWIGPSGGHTMYADSVKGRFTISRDNSKNTLYLQMNSLRAEDTAVYYCARLQQGLDYWGQGTLVTVSS
VL: DIQMTQSPSTLSASVGDRVTITCRASQSISNWLAWYQQKPGKAPKLLIYMASTLESGVPSRFSGSGSGTEFTLTISSLQPADFATYYCQQYNSYSVTFGGGTKVEIKR
B9: M0126-F11 (Fab, V domains shown)
VH: EVQLLESGGGLVQPGGSLRLSCAASGFTFSHYWMMWVRQAPGKGLEWVSWIGSSGGFTWYADSVKGRFTISRDNSKNTLYLQMNSLRAEDTAVYYCARGNGGFDSWGQGTLVTVSS
VL: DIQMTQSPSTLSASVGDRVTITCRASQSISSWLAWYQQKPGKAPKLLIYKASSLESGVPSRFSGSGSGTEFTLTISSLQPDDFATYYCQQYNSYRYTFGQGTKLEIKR
B10: M0128-E07 (Fab, V domains shown)
VH: EVQLLESGGGLVQPGGSLRLSCAASGFTFSFYPMSWVRQAPGKGLEWVSYIWPSGGATRYADSVKGRFTISRDNSKNTLYLQMNSLRAEDTAVYYCARGNGGFDSWGQGTLVTVSS
VL: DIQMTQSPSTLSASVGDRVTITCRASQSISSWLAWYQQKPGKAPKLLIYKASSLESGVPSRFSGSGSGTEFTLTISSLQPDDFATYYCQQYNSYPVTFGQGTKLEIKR
B11: M0132-H11 (Fab, V domains shown)
VH: EVQLLESGGGLVQPGGSLRLSCAASGFTFSHYQMHWVRQAPGKGLEWVSRIRSSGGATSYADSVKGRFTISRDNSKNTLYLQMNSLRAEDTAVYYCARGGGYSYYFDYWGQGTLVTVSS
VL: AQYELTQPPSASGTPGQRVTISCSGSSSNIGSNYVYWYQQLPGTAPKLLIYRNNQRPSGVPDRFSGSKSGTSASLAISGLRSEDEADYYCAAWDDSLSGHAVFGGGTQLTVLG
B12: M0104-H12 (Fab, V domains shown)
VH: EVQLLESGGGLVQPGGSLRLSCAASGFTFSYYQMSWVRQAPGKGLEWVSRIGPSGGLTSYADSVKGRFTISRDNSKNTLYLQMNSLRAEDTAVYYCARVGVWYGMDVWGQGTLVTVSS
VL: AQSELTQPPSASGSPGQSVTISCTGTSSDVGAYNYVSWYQQHPGKAPKLIIYEVNKRPSGVPDRFSASKSGNTASLTVSGLQAEDEADYYCNSYAGSNSLIFGGGTKLTVLG
B13: M0135-F03 (Fab, V domains shown)
VH: EVQLLESGGGLVQPGGSLRLSCAASGFTFSHYVMIWVRQAPGKGLEWVSWIYPSGGNTIYADSVKGRFTISRDNSKNTLYLQMNSLRAEDTATYYCARVGVWYGMDVWGQGTTVTVSS
VL: DIQMTQSPATLSLSPGERATLSCRASQSVSSYLAWYQQKPGQAPRLLIYDASNRATGIPARFSGSGSGTDFTLTISSLEPEDFAVYYCQQRSNWPSPIAFGQGTRLEIKR
B14: M0111-C10 (Fab, V domains shown)
VH: EVQLLESGGGLVQPGGSLRLSCAASGFTFSRYVMSWVRQAPGKGLEWVSSIRSSGGRTMYADSVKGRFTISRDNSKNTLYLQMNSLRAEDTAVYYCARVGVWYGMDVWGQGTTVTVSS
VL: DIQMTQSPSSLSASVGDRVTITCRASQSISSYLNWYQQKPEKAPQLLIFAASSLQSGVPSRFSGSGSGTDFTLTISSLQPEDFATYYCQQSYNAPWTFGQGTKVEIRR
B15: M0139-F09 (Fab, V domains shown)
VH: EVQLLESGGGLVQPGGSLRLSCAASGFTFSHYVMAWVRQAPGKGLEWVSRIGPSGGYTMYADSVKGRFTISRDNSKNTLYLQMNSLRAEDTAVYYCARVGVWYGMDVWGQGTTVTVSS
VL: DIQMTQSPGTLSLSPGERATLSCRASQSVSSSYLAWYQQKPGQAPRLLIYGASSRATGIPDRFSGSGSGTDFTLTISSLQLEDFGTYFCQQSYRSPYTFGQGTKVDIKR
B16: M0094-E08 (Fab, V domains shown)
VH: EVQLLESGGGLVQPGGSLRLSCAASGFTFSFYAMVWVRQAPGKGLEWVSYISPSGGATWYADSVKGRFTISRDNSKNTLYLQMNSLRAEDTAVYYCAKPSRPRYYYDSSGYYSSAFDIWGQGTMVTVSS
VL: AQSVLTQPASVSGSPGQSITISCTGTSSDVGAYNYVSWYQQHPGKVPELMIYDVSNRPSGVSHRFSGSKSGNTASLTISGLQAEDDADYYCSSFTSRKTWVFGTGTKVTVLG
B17: M0104-A12 (Fab, V domains shown)
VH: EVQLLESGGGLVQPGGSLRLSCAASGFTFSHYNMGWVRQAPGKGLEWVSRIGSSGGKTAYADSVKGRFTISRDNSKNTLYLQMNSLRAEDTAVYYCAKTNYDFWSGYLPNPNPYPLDYWGQGTLVTVSS
VL: DIQMTQSPSSLSASVGDRVTITCRASQSIGASLNWYQQKPQKAPKLLIYTASNLQSGVPSRFSGSGSGTDFTLTISSLLPEDFATYYCQQNYRGRTFGQGTKLEIKR
B18: M0115-G12 (Fab, V domains shown)
VH: EVQLLESGGGLVQPGGSLRLSCAASGFTFSPYFMEWVRQAPGKGLEWVSGISSSGGNTLYADSVKGRFTISRDNSKNTLYLQMNSLRAEDTAVYYCARDRFGNYYGSGSKLQHDAFDIWGQGTMVTVSS
VL: DIQMTQSPVTLSLSPGDRATLSCRASQSVSFNLAWYQHKPGQAPRLLMFDASNRATGIPDRFSGSGSGTDFTLTIKRLEPEDFAVYYCQQYGTSPFTFGPGTNVDVKR
B19: M0132-D02 (Fab, V domains shown)
VH: EVQLLESGGGLVQPGGSLRLSCAASGFTFSHYPMDWVRQAPGKGLEWVSYIGPSGGSTRYADSVKGRFTISRDNSKNTLYLQMNSLRAEDTAVYYCARHVPPGTWGQGTLVTVSS
VL: AQSALTQPRSVSGSPGQSVTISCTGTSSDVNYVSWYQQHPGKAPKLMIYAVTKRPSGVPDRFSGSKSGNTASLTVSGLQAEDEADYYCSSYAGSNNLVFGGGTKLTVLG
B20: M0097-F04 (Fab, V domains shown)
VH: EVQLLESGGGLVQPGGSLRLSCAASGFTFSPYQMWWVRQAPGKGLEWVSSISSSGGLTRYADSVKGRFTISRDNSKNTLYLQMNSLRAEDMAVYYCARVKLNYYGSGSYSLDAFDIWGQGTNGHRLKRLHQGPIGLPASTLLQEH
VL: AQYELTQPPSASGTPGQRVTISCSGSSSNIGSNYVHWYQQLPGTAPKLLIYRNNRRPSGVPDRFSGSKSGTSASLAISGLRSEDEADYYCAAWDDSLSGLVVFGGGTKLTVLGQPKAAP

Each binder was assayed against T1, hK1 (human tissue kallikrein 1), recombinant (human, UniProt P06870 25-262) (assay: SPR).
T1 construct: Expressed in P. pastoris from KLK1 cDNA and purified; enzymatically active; also called KLK1; Recombinant (Pichia) Kallikrein

Point of comparison: B13, Kd 2.66 nM. Against it:
- B1 — 2.1-fold higher, 5.53 nM
- B2 — 2.8-fold higher, 7.49 nM
- B3 — within 1.5-fold, 3.36 nM
- B4 — 1.6-fold higher, 4.26 nM
- B5 — 2.2-fold higher, 5.72 nM
- B6 — within 1.5-fold, 3.1 nM
- B7 — 1.8-fold higher, 4.75 nM
- B8 — 1.8-fold higher, 4.73 nM
- B9 — 1.9-fold higher, 5.05 nM
- B10 — 11-fold higher, 30.4 nM
- B11 — 1.7-fold higher, 4.5 nM
- B12 — within 1.5-fold, 2.43 nM
- B14 — within 1.5-fold, 3.29 nM
- B15 — within 1.5-fold, 3.6 nM
- B16 — within 1.5-fold, 3.34 nM
- B17 — within 1.5-fold, 3.66 nM
- B18 — 2.2-fold higher, 5.73 nM
- B19 — 1.6-fold higher, 4.22 nM
- B20 — within 1.5-fold, 3.26 nM

Point of comparison: B2, koff 0.00256 s⁻¹. Against it:
- B1 — within 1.5-fold, 0.00255 s⁻¹
- B3 — 2.9-fold lower, 0.00089 s⁻¹
- B4 — 3.5-fold lower, 0.000728 s⁻¹
- B5 — 2.5-fold lower, 0.00103 s⁻¹
- B6 — 6.8-fold lower, 0.000376 s⁻¹
- B7 — 1.7-fold higher, 0.00438 s⁻¹
- B8 — 2.8-fold lower, 0.000923 s⁻¹
- B9 — 1.8-fold lower, 0.00144 s⁻¹
- B10 — 5.7-fold higher, 0.0147 s⁻¹
- B11 — within 1.5-fold, 0.00198 s⁻¹
- B12 — 1.9-fold lower, 0.00138 s⁻¹
- B13 — 4.1-fold lower, 0.000625 s⁻¹
- B14 — within 1.5-fold, 0.00341 s⁻¹
- B15 — 2.4-fold lower, 0.00108 s⁻¹
- B16 — 4.8-fold lower, 0.00053 s⁻¹
- B17 — within 1.5-fold, 0.00246 s⁻¹
- B18 — 3-fold lower, 0.000865 s⁻¹
- B19 — within 1.5-fold, 0.00303 s⁻¹
- B20 — 7.4-fold lower, 0.000346 s⁻¹

Point of comparison: B9, kon 285000 M⁻¹ s⁻¹. Against it:
- B1 — 1.6-fold higher, 461000 M⁻¹ s⁻¹
- B2 — within 1.5-fold, 341000 M⁻¹ s⁻¹
- B3 — within 1.5-fold, 265000 M⁻¹ s⁻¹
- B4 — 1.7-fold lower, 171000 M⁻¹ s⁻¹
- B5 — 1.6-fold lower, 180000 M⁻¹ s⁻¹
- B6 — 2.4-fold lower, 121000 M⁻¹ s⁻¹
- B7 — 3.2-fold higher, 922000 M⁻¹ s⁻¹
- B8 — within 1.5-fold, 195000 M⁻¹ s⁻¹
- B10 — 1.7-fold higher, 483000 M⁻¹ s⁻¹
- B11 — 1.5-fold higher, 440000 M⁻¹ s⁻¹
- B12 — 2-fold higher, 567000 M⁻¹ s⁻¹
- B13 — within 1.5-fold, 235000 M⁻¹ s⁻¹
- B14 — 3.6-fold higher, 1.04e+06 M⁻¹ s⁻¹
- B15 — within 1.5-fold, 301000 M⁻¹ s⁻¹
- B16 — 1.8-fold lower, 159000 M⁻¹ s⁻¹
- B17 — 2.4-fold higher, 673000 M⁻¹ s⁻¹
- B18 — 1.9-fold lower, 151000 M⁻¹ s⁻¹
- B19 — 2.5-fold higher, 717000 M⁻¹ s⁻¹
- B20 — 2.7-fold lower, 106000 M⁻¹ s⁻¹

— US7329737 (DYAX, dated 2008)
